From the Human Domainome abundance scans (Beltran et al. 2025)

B1: Intersectin-1, residues 909 to 971; numbered along this chain, Q15811 (parent)
chain: QGEKVEGLQAQALYPWRAKKDNHLNFNKNDVITVLEQQDMWWFGEVQGQKGWFPKSYVKLISG

Variants of: B1
Assay: abundance fitness (aPCA) (normalised: wild type 0, dead -1); higher = more abundant; growth selection in yeast, the domain comes from the species named
Details: Homo sapiens

Abundance fitness: each site, then its substitutions
N27: K -0.191 | M -0.037 | E 0.054 | A -0.114 | R -0.016 | Q -0.143 | T -0.307 | V 0.157 | S -0.408 | G -0.185 | H -0.708
N29: H 0.104 | A -0.113 | P -0.728 | W -0.345 | F -0.196 | R -0.172 | T -0.311 | D -0.081 | G -0.031 | Q -0.041 | K -0.324 | E -0.024 | L -0.269 | Y -0.282 | M -0.034 | S -0.128 | C -0.185
K19: E 0 | S 0.008 | H -0.114 | F 0.032 | T 0.033 | Q 0.069 | I -0.028 | L -0.045 | P -0.139 | D 0.026 | C -0.048 | V 0.021 | A -0.018 | N -0.055 | Y -0.078
Q11: T -0.098 | Y -0.09 | S -0.066 | P -1.03 | R -0.067 | V -0.364 | W -0.098 | M -0.119
H23: F -0.123 | S -0.316 | A -0.245 | W -0.04 | Q -0.135 | P -0.596 | T -0.207 | M -0.231 | C -0.492 | R -0.254 | I -0.551 | V -0.172 | Y -0.171 | G -0.164 | L -0.114
K20: R -0.078 | H -0.133 | F -0.101 | V -0.117 | M -0.06 | W -0.156 | N 0.053 | T -0.079 | Q -0.171 | Y -0.15 | S -0.011 | D -0.097 | I -0.092 | A 0.001 | L -0.176 | P -0.374
R17: P -0.293 | G -0.306 | V 0.061 | S -0.043 | L -0.021 | H -0.108 | K -0.359 | D -0.163 | Q -0.066 | T -0.097 | A -0.19 | E -0.049 | W -0.24 | F -0.141 | M -0.081
A12: T -0.841 | K -0.773 | S -0.577 | R -0.997 | W -1.02 | G -0.404 | C -0.474
F26: E -1.07 | R -1.01 | G -1.02 | I -0.072 | L -0.078 | C -0.723 | S -0.866 | Q -1 | M 0.014 | V -0.335 | A -0.767
W16: L -0.046 | R -0.115 | K -0.427 | N -0.199 | E -0.888 | G -0.744 | Y -0.32 | M -0.281 | H -0.051 | Q -0.396 | T -0.646 | F -0.092 | V -0.357 | I 0.126 | P -0.691 | C -0.157 | S -0.053
D21: T -0.03 | A 0 | S -0.071 | L -0.012 | N -0.265 | Y -0.102 | H 0.01 | R -0.125 | M -0.434 | C -0.167 | G -0.068 | V 0.007 | F -0.131 | Q 0.145 | E -0.096 | W -0.112 | P -0.005
V31: R -0.03 | W -0.132 | K -0.006 | L -0.022 | D -0.484 | F -0.022 | Q -0.102 | P -0.325 | E -0.185 | A -0.274 | H -0.117 | I 0.011 | M 0.003 | Y -0.058 | C -0.08 | S -0.224 | G -0.476
Y14: C -0.511 | K -0.098 | F -0.725 | D -0.104 | L 0.009 | H -0.103 | G -0.159 | P -0.585 | T -0.191 | I -0.058 | A -0.09 | E 0.023 | S -0.233 | V 0.011 | R -0.052 | Q -0.129
N22: P 0.037 | W -0.172 | G -0.018 | T 0.003 | M -0.4 | R -0.142 | H -0.301 | S 0.036 | Q 0.015 | V -0.313 | C 0.051 | K 0.022 | L -0.279 | A -0.118
K28: N -0.563 | R -0.232 | H -0.253 | Y -0.254 | E -0.173 | L -0.462 | A -0.264 | P -0.584 | M -0.208 | T 0.208 | I -0.649 | Q -0.197 | V -0.256 | D -0.145 | G -0.203 | C -0.172
L13: T -0.233 | D -0.158 | Q -0.2 | S -0.412 | G -0.709 | M -0.204 | I -0.393 | A -0.271 | V 0.091 | E -0.267 | C -0.268 | R -0.126 | N -0.024
D30: M -0.252 | V -0.357 | E -0.089 | T -0.15 | N -0.396 | R -0.778 | S -0.259 | P -0.759 | Y -0.469 | K -0.783 | L -0.751 | C -0.166 | I -0.677 | F -0.742 | G -0.75 | W -0.331 | H -0.511 | Q -0.036
N25: S -0.074 | W -0.462 | A -0.064 | R -0.177 | H 0.009 | C -0.057 | F -0.491 | P -0.451 | V -0.207 | L -0.28 | M -0.087 | G -0.081 | D -0.066 | E -0.08 | K 0.115
P15: F -0.224 | G 0.115 | W -0.746 | Y -0.269 | S 0.011 | N 0.087 | A 0.017 | K -0.14 | T -0.059 | Q 0.052 | C -0.059 | D -0.156 | E 0.054 | M 0.114 | I -0.127 | R -0.018 | L -0.338
A18: S -0.058 | C -0.189 | Q -0.494 | V -0.215 | E -0.234 | L -0.274 | N -0.086 | M -0.09 | G 0.043 | K -0.059 | Y -0.365 | T -0.065 | P -0.034 | R -0.267 | D -0.109 | W -0.362
I32: V -0.052 | K -0.965 | W -0.869 | T -0.97 | M -0.446 | Q -1 | F -0.423 | G -0.658 | H -0.692 | L -0.23 | D -0.568 | E -1.03 | R -0.766 | A -0.7 | P -0.42
T33: N -0.233 | G -0.196 | H -0.201 | M -0.068 | L -0.158 | E -0.089 | I -0.213 | A -0.071 | K -0.1 | D 0.086 | P -0.897 | C -0.159 | F -0.242 | R -0.034
L24: M -0.611 | C -0.199 | A -0.436 | N -0.563 | Q -0.694 | T -0.694 | E -0.591 | S -0.867 | I -0.359 | K -1.14 | W -0.778 | P -0.383 | D -1.26 | F -0.466
